Drawing on PMC11584738, this text covers Kd for 1 substance.

The target in the test is His-GST-TRP (without signal peptide) (Verticillium dahliae strain V991). Put plainly: MST.

Take “GST-CTL1 (without signal peptide) (natural protein)”: the Kd stood at 1790 nM.

The Kd is the constant that tells how readily two partners part at equilibrium. Low values mean tighter binding, high ones weaker binding.
